Experimental data: paper PMC9234707, “Type II BMP and activin receptors BMPR2 and ACVR2A share a conserved mode of growth factor recognition” (The Journal of Biological Chemistry, 2022)

Biological target: the molecule itself
Assay: crystal structure; purified GF combined with 1.2 M excess of purified, deglycosylated receptor GBD; buffer exchanged to 10 mM Tris-HCl, 40 mM NaCl, pH 8.0; BMPR2-activin B crystals in 14% PEG 3K, 175 mM (NH4)2SO4, 100 mM BisTris pH 5.4; ACVR2A-activin A crystals in 17% PEG 3K, 100 NaCitrate pH 5.8

B1: activin B (ligand, human (by the printed accession), UniProt P09529 293-407, looked up)
chain: GLECDGRTNLCCRQQFFIDFRLIGWNDWIIAPTGYYGNYCEGSCPAYLAGVPGSASSFHTAVVNQYRMRGLNPGTVNSCCIPTKLSTMSMLYFDDEYNIVKRDVPNMIVEECGCA
notes: activin B (inhibin beta B chain), full mature moiety, residues 293 to 407; disulfide linked dimer; also called ActB; INHBB
- binding result: binds

B2: activin A (ligand, human (by the printed accession), UniProt P08476 311-426, looked up)
chain: GLECDGKVNICCKKQFFVSFKDIGWNDWIIAPSGYHANYCEGECPSHIAGTSGSSLSFHSTVINHYRMRGHSPFANLKSCCVPTKLRPMSMLYYDDGQNIIKKDIQNMIVEECGCS
notes: activin A (inhibin beta A chain), full mature moiety, residues 311 to 426; disulfide linked dimer; it was removed with the prodomain; also called ActA; INHBA
- binding result: binds
